# T1: HA-FBXO11 fusion protein expressed in E. coli (UniProt Q86XK2 1-927)
# T1 construct: FBXO11 with an HA tag, expressed in E. coli; The methods of the GST pull-down speak of total cell lysates, the results of purified proteins from E. coli; source: E. coli, purified
# T1 sequence (looked up): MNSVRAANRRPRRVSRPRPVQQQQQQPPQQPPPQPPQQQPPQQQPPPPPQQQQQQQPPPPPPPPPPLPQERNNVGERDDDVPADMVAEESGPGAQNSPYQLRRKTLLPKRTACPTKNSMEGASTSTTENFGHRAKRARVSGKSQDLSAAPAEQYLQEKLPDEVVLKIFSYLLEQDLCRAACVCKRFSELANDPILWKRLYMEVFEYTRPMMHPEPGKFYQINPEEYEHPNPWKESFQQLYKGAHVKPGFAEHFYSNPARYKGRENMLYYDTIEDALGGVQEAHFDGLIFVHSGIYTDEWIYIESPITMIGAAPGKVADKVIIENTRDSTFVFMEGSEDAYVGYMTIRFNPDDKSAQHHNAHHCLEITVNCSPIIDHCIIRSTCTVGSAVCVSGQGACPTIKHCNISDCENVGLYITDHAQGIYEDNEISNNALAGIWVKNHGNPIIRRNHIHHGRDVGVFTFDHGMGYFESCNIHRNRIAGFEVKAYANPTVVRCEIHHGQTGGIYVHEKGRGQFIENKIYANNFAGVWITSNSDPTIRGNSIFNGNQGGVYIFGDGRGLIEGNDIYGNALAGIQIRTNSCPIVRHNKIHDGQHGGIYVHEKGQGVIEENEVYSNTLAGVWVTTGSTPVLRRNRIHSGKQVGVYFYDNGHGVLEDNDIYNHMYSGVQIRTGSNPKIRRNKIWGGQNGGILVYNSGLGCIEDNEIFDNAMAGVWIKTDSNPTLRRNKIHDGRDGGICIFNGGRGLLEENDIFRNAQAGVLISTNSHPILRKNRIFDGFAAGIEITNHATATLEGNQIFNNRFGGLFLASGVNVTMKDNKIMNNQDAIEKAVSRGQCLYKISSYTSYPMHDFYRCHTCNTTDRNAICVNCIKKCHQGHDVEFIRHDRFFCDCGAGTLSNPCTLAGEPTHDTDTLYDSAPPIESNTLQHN
# B1: GST-hnRNPA2B1 (natural protein, UniProt P22626 1-353, looked up)
# chain: MEKTLETVPLERKKREKEQFRKLFIGGLSFETTEESLRNYYEQWGKLTDCVVMRDPASKRSRGFGFVTFSSMAEVDAAMAARPHSIDGRVVEPKRAVAREESGKPGAHVTVKKLFVGGIKEDTEEHHLRDYFEEYGKIDTIEIITDRQSGKKRGFGFVTFDDHDPVDKIVLQKYHTINGHNAEVRKALSRQEMQEVQSSRSGRGGNFGFGDSRGGGGNFGPGPGSNFRGGSDGYGSGRGFGDGYNGYGGGPGGGNFGGSPGYGGGRGGYGGGGPGYGNQGGGYGGGYDNYGGGNYGSGNYNDFGNYNQQPSNYGPMKSGNFGGSRNMGGPYGGGNYGPGGSGGSGGYGGRSRY
# notes: hnRNPA2B1 as a GST fusion protein; source: E. coli BL21 (DE3), purified (GST-tag purification resin)
# Molecular target: T1, HA-FBXO11 fusion protein expressed in …
# Assay: pull-down; GST pull-down (Magne GST pull-down system), GST-hnRNPA2B1 immobilised on magnetic beads, overnight at 4 °C, HA-FBXO11 expressed in E. coli, western blot
# Conditions: both partners purified
binder,measurement,value
B1,binding result,binds

# Reference: publication PMC10576442, “Cullin‐associated and neddylation‐dissociated 1 regulate reprogramming of lipid metabolism through SKP1‐Cullin‐1‐F‐box^FBXO11‐mediated heterogeneous nuclear ribonucleoprotein A2/B1 ubiquitination and promote hepatocellular carcinoma” (Clinical and Translational Medicine, 2023)
